# Results: patent US20240076375A1 (BEIGENE, published 2024)
# T1: Human Fc-tagged Tim-3 IgV domain (human, UniProt Q8TDQ0 22-130, limits assumed)
# T1 construct: not shown: human Fc tag
# T1 sequence: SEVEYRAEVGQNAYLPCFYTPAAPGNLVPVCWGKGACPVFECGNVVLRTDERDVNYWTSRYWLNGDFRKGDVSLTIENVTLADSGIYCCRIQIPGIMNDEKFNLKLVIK
# B1: hu425-2-2 Fab (Fab, V domains shown)
# VH: EVQLVESGGGLVQPGGSLRLSCAASGFTFSRYAMSWVRQAPGKGLEWVAAISSGGSLYYPDSVKGRFTISRDNAKNTLYLQMNSLRAEDTAVYYCARGREADGGYFDYWGQGTLVTVSS
# VL: EIVMTQSPATLSVSPGERATLSCRASESVEYYGTSLMQWYQQKPGQAPRLLIYAASNVESGIPARFSGSGSGTEFTLTISSLQSEDFAVYYCQQSLKVPLTFGGGTKVEIK
# notes: Fab prepared from the mAb with the Pierce Fab Preparation Kit; Only the variable domains are tied to the name. hu425s were engineered in the human IgG1 format
# B2: hu425-1-1 Fab (Fab, V domains shown)
# VH: EVQLVESGGGLVQPGGSLRLSCAASGFTFSRYAMSWVRQAPGKGLEWVAAISSGGSLYFPDSVKGRFTISRDNAKNSCYLQMNSLRAEDTAVYYCARGREADGGYFDYWGQGTLVTVSS
# VL: DIVLTQSPATLSVSPGERATLSCRASESVEYYGTSLMQWYQQKPGQAPRLLIYAASNVESGVPARFSGSGSGTDFTLTISSLQSEDFAVYYCQQSMKVPLTFGGGTKVEIKR
# notes: Fab prepared from the mAb with the Pierce Fab Preparation Kit
# B3: Hu425-2-3b in human IgG4 format with S228P mutation (antibody, V domains shown)
# VH: EVQLVESGGGLVQPGGSLRLSCAASGFTFSRYAMSWVRQAPGKGLEWVAAISSGGSLYYPDSVKGRFTISRDNAKNTLYLQMNSLRAEDTAVYYCARGREADGGYFDYWGQGTLVTVSS
# VL: EIVLTQSPATLSVSPGERATLSCRASESVEYYGTSLMQWYQQKPGQAPRLLIYAASNVESGIPARFSGSGSGTEFTLTISSLQSEDFAVYYCQQSLKVPLTFGGGTKVEIK
# B4: hybrid antibody 425 HC/Ab1 LC (antibody, V domains shown)
# VH: EVQLVESGGGLVQPGGSLRLSCAASGFTFSRYAMSWVRQAPGKGLEWVAAISSGGSLYYPDSVKGRFTISRDNAKNTLYLQMNSLRAEDTAVYYCARGREADGGYFDYWGQGTLVTVSS
# VL: AIQLTQSPSSLSASVGDRVTITCRASESVEYYGTSLMQWYQQKPGKAPKLLIYAASNVESGVPSRFSGSGSGTDFTLTISSLQPEDFATYFCQQSRKDPSTFGGGTKVEIK
# B5: hu425-2-3b Fab (Fab, V domains shown)
# VH: EVQLVESGGGLVQPGGSLRLSCAASGFTFSRYAMSWVRQAPGKGLEWVAAISSGGSLYYPDSVKGRFTISRDNAKNTLYLQMNSLRAEDTAVYYCARGREADGGYFDYWGQGTLVTVSS
# VL: EIVLTQSPATLSVSPGERATLSCRASESVEYYGTSLMQWYQQKPGQAPRLLIYAASNVESGIPARFSGSGSGTEFTLTISSLQSEDFAVYYCQQSLKVPLTFGGGTKVEIK
# notes: Fab prepared from the mAb with the Pierce Fab Preparation Kit; Only the variable domains are tied to the name
# B6: hu425-2F-1 (antibody, human IgG1, kappa, V domains shown)
# VH: EVQLVESGGGLVQPGGSLRLSCAASGFTFSRYAMSWVRQAPGKGLEWVAAISSGGSLYFPDSVKGRFTISRDNAKNSCYLQMNSLRAEDTAVYYCARGREADAGYFDYWGQGTLVTVSS
# VL: DIVLTQSPATLSVSPGERATLSCRASESVEYYGTSLMQWYQQKPGQAPRLLIYAASNVESGVPARFSGSGSGTDFTLTISSLQSEDFAVYYCQQSMKVPLTFGGGTKVEIKR
# notes: Single amino acid mutation from hu425-1-1; also called G103A
# B7: hu425-2-3b (antibody, V domains shown)
# VH: EVQLVESGGGLVQPGGSLRLSCAASGFTFSRYAMSWVRQAPGKGLEWVAAISSGGSLYYPDSVKGRFTISRDNAKNTLYLQMNSLRAEDTAVYYCARGREADGGYFDYWGQGTLVTVSS
# VL: EIVLTQSPATLSVSPGERATLSCRASESVEYYGTSLMQWYQQKPGQAPRLLIYAASNVESGIPARFSGSGSGTEFTLTISSLQSEDFAVYYCQQSLKVPLTFGGGTKVEIK
# notes: Full chains are not tied to the name
# B8: Ab1 in human IgG4 format with S228P mutation (antibody, V domains shown)
# VH: QVQLVQSGAEVKKPGSSVKVSCKASGYTFTSYNMHWVRQAPGQGLEWMGDIYPGNGDTSYNQKFKGRVTITADKSTSTVYMELSSLRSEDTAVYYCARVGGAFPMDYWGQGTTVTVSS
# VL: AIQLTQSPSSLSASVGDRVTITCRASESVEYYGTSLMQWYQQKPGKAPKLLIYAASNVESGVPSRFSGSGSGTDFTLTISSLQPEDFATYFCQQSRKDPSTFGGGTKVEIK
# notes: Known Tim-3 antibody, generated in human IgG4 format with S228P mutation
# B9: mu425 (antibody, V domains shown)
# VH: EVKLVESGGGLVKPGGSLKLSCAASGFTFSRYAMSWVRQIPEKRLEWVAAISSGGSLYFPDSVKGRFTISRDNARNICYLQMNSLRSDDTAMYYCARGREADGGYFDYWGQGTTLTVSS
# VL: DIVLTQSPASLAVSLGQRATISCRASESVEYYGTSLMQWYQQKPGQPPKLLIYAASNVESGVPARFSGSGSGTDFSLNIHPVEEDDIAMYFCQQSMKVPLTFGAGTKLELK
# notes: Murine hybridoma mAb, purified
# B10: ch425 Fab (Fab, V domains shown)
# VH: EVKLVESGGGLVKPGGSLKLSCAASGFTFSRYAMSWVRQIPEKRLEWVAAISSGGSLYFPDSVKGRFTISRDNARNICYLQMNSLRSDDTAMYYCARGREADGGYFDYWGQGTTLTVSS
# VL: DIVLTQSPASLAVSLGQRATISCRASESVEYYGTSLMQWYQQKPGQPPKLLIYAASNVESGVPARFSGSGSGTDFSLNIHPVEEDDIAMYFCQQSMKVPLTFGAGTKLELKR
# notes: as for B2
# B11: Ab2 in human IgG4 format with S228P mutation (antibody, V domains shown)
# VH: EVQLLESGGGLVQPGGSLRLSCAAASGFTFSSYDMSWVRQAPGKGLDWVSTISGGGTYTYYQDSVKGRFTISRDNSKNTLYLQMNSLRAEDTAVYYCASMDYWGQGTTVTVSS
# VL: DIQMTQSPSSLSASVGDRVTITCRASQSIRRYLNWYHQKPGKAPKLLIYGASTLQSGVPSRFSGSGSGTDFTLTISSLQPEDFAVYYCQQSHSAPLTFGGGTKVEIKR
# notes: as for B8
# Experiments:
# [1] = target: T2, Tim-3 (form used in the assay not stated) (human, UniProt Q8TDQ0 22-202, limits assumed); experiment: SPR, Fab, mean of Test 1 and Test 2
# [2] = target: T2, Tim-3 (form used in the assay not …); experiment: SPR, Fab, Test 2
# [3] = target: T2, Tim-3 (form used in the assay not …); experiment: SPR, Fab, Test 1
# [4] = target: T3, Tim-3-his (human, UniProt Q8TDQ0 22-202, limits assumed); experiment: SPR (BIAcore T-200), antibody captured by anti-human Fab, Tim-3-his flowed
# T3 construct: not shown: his tag
# [5] = target: T3, Tim-3-his; experiment: BLI (ForteBio Octet), antibody captured on protein A tips, dipped in Tim-3-his solution
# [6] = target: T2, Tim-3 (form used in the assay not …); experiment: ELISA on Tim-3, absorbance at OD450nm against antibody concentration
# [7] = target: Tim-3-mIgG2a (human; mouse, UniProt Q8TDQ0 22-202); experiment: ELISA on Tim-3-mIg, absorbance at OD450nm against antibody concentration
# [8] = target: T1, Human Fc-tagged Tim-3 IgV domain; experiment: SPR (BIAcore T-200), Fc-tagged Tim-3 IgV domain captured by anti-human IgG, antibody flowed
binder,measurement,setting,value
B1,Kd,[1],0.419 nM
same,Kd,[2],0.404 nM
same,koff,[2],0.000795 s⁻¹
same,kon,[2],1.97e+06 M⁻¹ s⁻¹
same,Kd,[3],0.434 nM
same,koff,[3],0.00074 s⁻¹
same,kon,[3],1.71e+06 M⁻¹ s⁻¹
B2,Kd,[1],0.253 nM
same,Kd,[2],0.346 nM
same,koff,[2],0.000435 s⁻¹
same,kon,[2],1.26e+06 M⁻¹ s⁻¹
same,Kd,[3],0.159 nM
same,koff,[3],0.000108 s⁻¹
same,kon,[3],679000 M⁻¹ s⁻¹
B3,Kd,[4],1.47 nM
same,koff,[4],0.000778 s⁻¹
same,kon,[4],528000 M⁻¹ s⁻¹
B4,binding result,[5],no binding
B5,Kd,[1],0.361 nM
same,Kd,[2],0.366 nM
same,koff,[2],0.00064 s⁻¹
same,kon,[2],1.75e+06 M⁻¹ s⁻¹
same,Kd,[3],0.356 nM
same,koff,[3],0.00057 s⁻¹
same,kon,[3],1.6e+06 M⁻¹ s⁻¹
B6,binding result,[6],no binding
B7,EC50 (read off the curve),[7],~0.01 µg/mL
B8,Kd,[4],0.271 nM
same,koff,[4],0.00012 s⁻¹
same,kon,[4],444000 M⁻¹ s⁻¹
B9,Kd,[8],0.058 nM
same,koff,[8],9.33e-05 s⁻¹
same,kon,[8],1.59e+06 M⁻¹ s⁻¹
B10,Kd,[3],0.122 nM
same,koff,[3],0.000204 s⁻¹
same,kon,[3],1.67e+06 M⁻¹ s⁻¹
B11,Kd,[4],19.4 nM
same,koff,[4],0.0122 s⁻¹
same,kon,[4],627000 M⁻¹ s⁻¹
